Assay [1] deals with T1, recombinant human CD86 (ACROBiosystems) (human, UniProt P42081 26-247, limits assumed).
T1 construct: counted here as a B7 family member
T1 sequence (looked up): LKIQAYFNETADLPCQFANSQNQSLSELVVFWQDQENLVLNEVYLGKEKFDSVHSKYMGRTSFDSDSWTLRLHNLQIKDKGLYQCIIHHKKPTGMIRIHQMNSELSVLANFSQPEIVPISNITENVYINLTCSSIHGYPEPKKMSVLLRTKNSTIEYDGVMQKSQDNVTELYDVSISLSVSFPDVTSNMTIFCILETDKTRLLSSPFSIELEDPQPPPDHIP
Description: ELISA, coated recombinant protein. As for the experimental part:
(§1) Binding specificity of the chimeric anti-human CD47 mAbs was determined by ELISA. A 96-well high-adsorption ELISA plate was coated with 1 μg/mL of the recombinant human PD1, CD28, CTLA4, ICOS, BTLA, CD47, PD-L2, CD80, CD86, B7-H2, CD47, SIRPα and SIRPγ (all from ACROBiosystems), at 100 μL per well using carbonate buffer solution, pH=9.6 at 4° C. overnight. The plate was washed 5 times with PBST, and then blocked using PBST with 1% BSA, 300 μL/well, and incubated at 25° C. for 1 hour, and then washed 5 times with PBST. The chimeric anti-human CD47 mAb samples serially diluted in PBST with 1% BSA and the control CC-90002 and the isotype control were added, 100 μL/well, incubated at 25° C. for 1 hour, and then washed 5 times with PBST. The horseradish peroxidase-labeled anti-human IgG antibody (Chemicon, catalog number AP309P) diluted 1:10000 in PBST with 1% BSA was then added, 100 μL per well, and incubated at 25° C. for 1 hour. The plate was washed 5 times with PBST. The colorimetric substrate TMB was added, 100 μL/well, and developed at room temperature for 10 minutes. 1M H₂SO₄ was added, 100 μL/well, to stop the development. The absorbance at 450 nm was read on a microplate reader.
(In an ELISA, binding on a coated surface is turned into a signal by an enzyme label.)

In assay [2] the target is T2, recombinant human B7-H2 (ACROBiosystems) (human, UniProt O75144 19-258, limits assumed).
T2 construct: counted here as a B7 family member
T2 sequence (looked up): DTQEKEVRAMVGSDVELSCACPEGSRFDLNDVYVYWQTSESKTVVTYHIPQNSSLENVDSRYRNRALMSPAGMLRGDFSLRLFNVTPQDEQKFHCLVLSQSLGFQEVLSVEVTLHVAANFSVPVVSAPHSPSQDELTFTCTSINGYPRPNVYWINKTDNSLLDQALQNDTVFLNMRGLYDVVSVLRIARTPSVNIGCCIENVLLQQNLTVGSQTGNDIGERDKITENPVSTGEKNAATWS
Description: ELISA, coated recombinant protein. The procedure:
as §1

Assay [3] concerns the target recombinant human SIRPγ (ACROBiosystems) (human, UniProt Q9P1W8 29-360, limits assumed). The assay can be described thus: ELISA, coated recombinant protein. As for the experimental part: as §1
In assay [4] the target is T3, recombinant human CD47 (human, UniProt Q08722 19-139).
T3 construct: also called antigen CD47
Description: ELISA, plate coated with 1 µg/mL recombinant human CD47, OD450. The procedure:
A 96-well high-adsorption ELISA plate was coated with 1 μg/mL of the recombinant human CD47 (Sino Biological Inc.) at 100 μL per well using carbonate buffer solution, pH=9.6 at 4° C. overnight. The plate was washed 5 times with PBST, and then blocked using PBST with 1% BSA, 300 μL/well, and incubated at 25° C. for 1 hour, and then washed 5 times with PBST. The anti-human CD47 antibody samples and the control CC-90002 (a patent sequence from WO2016109415) were added, 100 μL/well, incubated at 25° C. for 1 hour, and then washed 5 times with PBST. The horseradish peroxidase-labeled anti-mouse IgG antibody (Abcam, catalog number Ab7068) diluted 1:10000 in PBST with 1% BSA was then added, 100 μL per well, and incubated at 25° C. for 1 hour. The plate was washed 5 times with PBST. The colorimetric substrate TMB was added, 100 μL/well, and developed at room temperature for 10 minutes. 1M H₂SO₄ was added, 100 μL/well, to stop the development. The absorbance at 450 nm was read on a microplate reader.

Assay [5] addresses T4, recombinant human CD47-Fc protein (ACROBiosystems, catalog number CD7-H52A5) (human, UniProt Q08722 19-139).
T4 construct: bought; not shown: Fc part of a bought fusion protein, not described
The assay can be described thus: blocking ELISA: plate coated with human CD47-Fc, 2 nM biotin-labelled SIRPα as the blocked ligand, falling OD450 curve; the sheet labels the half-maximal value EC50. The procedure: A 96-well high-adsorption ELISA plate was coated with 1 μg/mL of the recombinant human CD47-Fc (ACROBiosystems) at 100 μL per well using carbonate buffer solution, pH=9.6 at 4° C. overnight. The plate was washed 5 times with PBST, and then blocked using PBST with 1% BSA, 300 μL/well, and incubated at 25° C. for 1 hour, and then washed 5 times with PBST. The anti-human CD47 antibody samples were added, 50 μL/well, the biotin-labelled SIRPα (ACROBiosystems) was added at a concentration of 4 nM (a final concentration of 2 nM), 50 μL/well, incubated at 25° C. for 90 minutes, and then washed 5 times with PBST. The Streptavidin-HRP (BD Pharmingen, catalog number 554066) diluted 1:1000 in PBST with 1% BSA was then added, 100 μL per well, and incubated at 25° C. for 1 hour. The plate was washed 5 times with PBST. The colorimetric substrate TMB was added, 100 μL/well, and developed at room temperature for 10 minutes. 1M H₂SO₄ was added, 100 μL/well, to stop the development. The absorbance at 450 nm was read on a microplate reader.

The target of assay [6] is T3, recombinant human CD47. Description: SPR, Biacore X100, antibody captured on Protein A chip, CD47 as analyte. The text has this:
Biacore X100 instrument (purchased from GE) was used to detect the kinetic constant of the chimeric anti-human CD47 monoclonal antibodies binding to its antigen human CD47. This instrument utilizes optical surface plasmon resonance technology to detect the association and dissociation between the molecules coated on the biochip and the molecules to be tested. The main reagent used is Protein A chip (GE Healthcare, 29-1275-57). The experimental procedure is briefly described as follows: the chimeric anti-human CD47 antibodies were diluted in running buffer (1×HBS-EP+10 mM HEPES, 150 mM NaCl, 3 mM EDTA, 0.05% surfactant P20, pH7.4). During the capture-binding phase, the antibodies at a concentration of 2 μg/mL were injected for 60 seconds at a speed of 10 μL/min. During the binding phase, the antigen CD47 was diluted into multiple concentrations with running buffer, injected for 120 seconds at a speed of 30 μL/min respectively. During the dissociation phase, running buffer was injected for 600 seconds at a speed of 10 μL/min. The regeneration condition is 10 mM glycinate solution, pH1.5. Association kinetic constants and dissociation kinetic constants were analyzed and calculated by Biacore X100 evaluation software. The association kinetic constants, dissociation kinetic constants and dissociation equilibrium constants of the chimeric anti-human CD47 antibodies were shown in Table 7.

T3 sequence (Q08722 19-139 limits assumed): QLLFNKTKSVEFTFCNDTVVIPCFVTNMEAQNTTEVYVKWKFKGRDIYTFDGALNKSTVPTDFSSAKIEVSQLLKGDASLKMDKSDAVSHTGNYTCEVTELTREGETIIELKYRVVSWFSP
Chain of recombinant human SIRPγ (ACROBiosystems) (Q9P1W8 29-360 limits assumed): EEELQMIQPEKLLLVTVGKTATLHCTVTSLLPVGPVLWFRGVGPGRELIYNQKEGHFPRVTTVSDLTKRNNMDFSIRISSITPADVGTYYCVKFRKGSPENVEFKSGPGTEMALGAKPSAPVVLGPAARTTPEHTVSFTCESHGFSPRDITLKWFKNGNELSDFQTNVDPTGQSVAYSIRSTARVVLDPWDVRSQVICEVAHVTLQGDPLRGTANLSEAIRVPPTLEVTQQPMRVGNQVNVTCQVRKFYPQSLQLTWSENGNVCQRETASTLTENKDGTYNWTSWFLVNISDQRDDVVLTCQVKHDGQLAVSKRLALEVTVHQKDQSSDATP
T4 sequence (Q08722 19-139 limits assumed): as the sequence (Q08722 19-139 limits assumed) above

B1: chimeric anti-human CD47 monoclonal antibody mAb-18-5 N297A (antibody, human IgG1, kappa, N297A)
heavy: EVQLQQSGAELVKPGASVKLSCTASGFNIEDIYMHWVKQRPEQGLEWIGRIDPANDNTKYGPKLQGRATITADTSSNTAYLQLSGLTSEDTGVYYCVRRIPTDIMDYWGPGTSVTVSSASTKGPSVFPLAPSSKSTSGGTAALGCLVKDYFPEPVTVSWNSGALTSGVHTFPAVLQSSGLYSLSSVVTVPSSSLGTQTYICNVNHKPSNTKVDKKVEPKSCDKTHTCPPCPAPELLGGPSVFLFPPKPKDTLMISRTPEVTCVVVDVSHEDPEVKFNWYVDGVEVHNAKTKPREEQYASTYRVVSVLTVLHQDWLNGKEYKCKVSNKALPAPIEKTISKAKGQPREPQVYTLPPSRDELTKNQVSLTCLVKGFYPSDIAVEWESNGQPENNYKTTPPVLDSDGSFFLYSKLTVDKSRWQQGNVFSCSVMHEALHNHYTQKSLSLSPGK
light: DIVMTQSQKFMSTSVGDRVSITCKASQNVRTSIAWYQQKSGQSPKTLIYLASNRHTGVPDRFTGSGSGTDFTLTISNVQSEDLADYFCLQHWNYPFTFGSGTKLEIKRTVAAPSVFIFPPSDEQLKSGTASVVCLLNNFYPREAKVQWKVDNALQSGNSQESVTEQDSKDSTYSLSSTLTLSKADYEKHKVYACEVTHQGLSSPVTKSFNRGEC
notes: no further substitution applied
For orientation: EC50 means the concentration that produces a half-maximal response. Usually IC50 stands for the point on the concentration scale where inhibition reaches its midpoint. For B1, the binding result in assay [1], in assay [2] and in assay [3] was “no binding” in each case. In addition, the EC50 in the assay with recombinant human CD47 [4] is 0.026 nM. For the same molecule, in assay [5], the IC50 worked out at 1.75 nM.

B2: chimeric anti-human CD47 monoclonal antibody mAb-18-10 (antibody, human IgG1, kappa)
heavy: not shown
light: DIVMTQSQKFMSTSVGDRVSITCKASQNVRTSIAWYQQKPGQSPKTLIYLASNRHTGVPDRFTGSGSGTDFTLTISNVQSEDLADYFCLQHWNYPFTFGSGTKLEIKRTVAAPSVFIFPPSDEQLKSGTASVVCLLNNFYPREAKVQWKVDNALQSGNSQESVTEQDSKDSTYSLSSTLTLSKADYEKHKVYACEVTHQGLSSPVTKSFNRGEC
What is called Kd is the equilibrium constant for the complex coming apart. In general, koff refers to a measure of how fast the partners let go of each other. In general, kon refers to the rate constant with which the complex forms. Take B2: the binding result in assay [1] is recorded as “no binding”. In addition, the binding result in assay [2] is “no binding”. In assay [3], the binding result is given as “no binding”. The EC50 with recombinant human CD47 [4] came out at 0.026 nM. Also, in the assay with recombinant human CD47 [6], the Kd was 1.02 nM, the koff worked out at 0.00101 s⁻¹ and the kon amounted to 994000 M⁻¹ s⁻¹. Moreover, the IC50 in assay [5] worked out at 1.64 nM.
